In paper doi:10.1101/2021.12.19.473342:

Target: BrxR from Escherichia fergusonii ATCC 35469 plasmid pEFER (Escherichia fergusonii ATCC 35469)
Assay: SEC

- stoichiometry N: 2
Substance: BrxR from Escherichia fergusonii ATCC 35469 plasmid pEFER (natural protein)
